According to article PMC5227068, “Pathogenicity Determinants of the Human Malaria Parasite Plasmodium falciparum Have Ancient Origins” (mSphere, 2017):

T1: recombinant human endothelial protein C receptor (human, UniProt Q9UNN8 18-238)
T1 construct: endothelial protein C receptor, human, recombinant; also called EPCR; human EPCR
T1 sequence (looked up): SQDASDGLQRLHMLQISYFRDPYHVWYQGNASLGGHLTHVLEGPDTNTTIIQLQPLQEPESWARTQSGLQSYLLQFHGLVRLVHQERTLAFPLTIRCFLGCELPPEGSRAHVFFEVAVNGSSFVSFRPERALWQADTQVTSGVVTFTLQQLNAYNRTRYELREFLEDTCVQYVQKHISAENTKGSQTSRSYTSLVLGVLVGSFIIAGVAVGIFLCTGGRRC


How the values were obtained:
Conditions in all cases: both partners purified
[1] = biological target: T1, recombinant human endothelial protein C …; test: BLI; Octet Qke; EPCR on the biosensor, CIDR domain in solution; protocol as reported previously (ref. 40); double-reference subtracted data fitted to a 1:1 binding model
[2] = biological target: P. reichenowi var71 CIDRα1.4 (Plasmodium reichenowi); test: BLI; Octet Qke; CIDR domains on recombinant human EPCR, protocol as reported previously (ref. 40); 1:1 fit
[3] = biological target: T2, P. reichenowi CDO62090.1 CIDRα1.4 (Plasmodium reichenowi, UniProt A0A060RMQ3 1-4072); test: as above
T2 construct: CIDRα1.4 domain of the P. reichenowi erythrocyte membrane protein 1 (PrEMP1) of entry CDO62090.1; Construct His6-MBP-TEV-CIDR-StrepII; also called Pr CDO62090.1 CIDRα1.4; source: pSHuffle expression hosts (New England Biolabs), purified (two-step process); not shown: StrepII, C-terminal, kept

[4] = biological target: T3, P. reichenowi CDO61774.1 CIDRα1.4 (Plasmodium reichenowi, UniProt A0A060RM78 1-3575); test: as above
T3 construct: CIDRα1.4 domain of the P. reichenowi erythrocyte membrane protein 1 (PrEMP1) of entry CDO61774.1; Construct His6-MBP-TEV-CIDR-StrepII; also called P. reichenowi CD061774.1 CIDRα1.4; Pr CDO61774.1 CIDRα1.4; source: pSHuffle expression hosts (New England Biolabs), purified (two-step process); not shown: StrepII, C-terminal, kept

Row | Binder | koff [1] [s⁻¹] | kon [1] [M⁻¹ s⁻¹] | further results
1 | P. reichenowi CDO61774.1 CIDRα1.4 (domain or fragment) TEIKVIVSGNEQGDISKKLEDFCSDENNENGKNYQKWECYYKSSQNNKCKMETKSGTSITEEKVTSFDAFFDLWVKNLLRDSIKWETELKDCINNSNVTDCNNDCNKNCVCFDKWVKQKEEVWKNMKTVLGNQKENLDNYYNKLNGLFKGFFFPVMFELNHDEAKWNKLMENLKKKIESSKENRGTVNSQDAIELLLEYLKEKSTICKDNNTN | 0.000293 | 47300 | Kd [1]: 6.2 nM
2 | P. reichenowi CDO62090.1 CIDRα1.4 (domain or fragment) TKINVLYSGDKQGDITQKLQNFCSDENKENGTNYQKWECYYKDEKQNKCKMDKTSGKNMTEDKIMSFDEFFYSWVTNFLIDTINWENELKNCMNNTILTDCNDGCKINCVCFDKWVKQKENEWENVKKVFENKNGISDNYYNKLKYIFEGFFFQVLYKLNQDEAKWNQLKQKLKEIIVSSKANTGKEHSQDAIKPLLEYIKEKSTICKDNNTN | 0.000443 | 7350 | 
3 | recombinant human EPCR (receptor) SQDASDGLQRLHMLQISYFRDPYHVWYQGNASLGGHLTHVLEGPDTNTTIIQLQPLQEPESWARTQSGLQSYLLQFHGLVRLVHQERTLAFPLTIRCFLGCELPPEGSRAHVFFEVAVNGSSFVSFRPERALWQADTQVTSGVVTFTLQQLNAYNRTRYELREFLEDTCVQYVQKHISAENTKGSQTSRSYTS |  |  | Kd [2]: 23 nM
4 | recombinant human EPCR (receptor, construct limits not given; taken as the soluble extracellular domain after the signal peptide, from the candidate's features) SQDASDGLQRLHMLQISYFRDPYHVWYQGNASLGGHLTHVLEGPDTNTTIIQLQPLQEPESWARTQSGLQSYLLQFHGLVRLVHQERTLAFPLTIRCFLGCELPPEGSRAHVFFEVAVNGSSFVSFRPERALWQADTQVTSGVVTFTLQQLNAYNRTRYELREFLEDTCVQYVQKHISAENTKGSQTSRSYTS |  |  | Kd [3]: 60 nM; Kd [4]: 6 nM
